Values quoted from earlier work, collected in article PMC8189991.

Biological target: Asp96 (UniProt position 109, PLLLLDLALLV)
Experiment: IR

In the case of “Bacteriorhodopsin (Halobacterium salinarum (not stated in the article; inferred))”, the pKa is given as “above 12”.
